Key:
[1] = tested on: Immunoglobulin G (total IgG); assay: pulldown; details: SB18, 37C
[2] = tested on: Immunoglobulin G (total IgG) (Homo sapiens); assay: filter
[3] = n (P) = NapdU, SB18, 5 mM MgCl2, 37 C
[4] = n (P) = NapdU, considered no binding
[5] = n (P) = 2NapdU, considered no binding
[6] = n (P) = 2NapdU, SB18, 5 mM MgCl2, 37 C
[7] = n (P) = NapdU, SB18, 5 mM MgCl2, 37 C, sequence identical to _21 to _25

Sequence: CATACGGTACGATTTTCAGTTGGATCCAGTACCTGGCTGGAGAGAA [5406-56_5]
- Kd ([1]; P = NapdU, bead partitioning): 7.91 nM

Sequence: TGGCGAACTCCCTGAATGCTCTTGTCTTAA [14125-144_22]
- Kd ([1]; P = NapdU, bead partitioning): 3.55 nM

Sequence: CGGCACTCCACATCCAAGACTGCGGTTACCTTGT [5334-8_19]
- Kd ([1]; P = 2NapdU, bead partitioning): > 1000 nM

Sequence: CCTCCATACGGTACGATTTTCAGTTGGATCCAGTACCT [5406-56_17]
- Kd ([1]; P = NapdU, bead partitioning): 4.14 nM

Sequence: GCCTGCACGATGGCGAACTCCCTGAATGCTCTTGTCTTAA [14125-144_16]
- Kd [2, 3]: 8.82 nM

Sequence: GGTACGATTTTCAGTTGGATCCAGTACCTG [5406-56_30]
- Kd [2, 3]: 3.22 nM

Sequence: GCCTGCACGATGGCGAACTCCCTGAATGCTCTTGTC [14125-144_18]
- Kd ([1]; P = NapdU, bead partitioning): > 1000 nM

Sequence: ATGGCGAACTCCCTGAATGCTCTTGTCT [14125-144_33]
- Kd [2, 4]: > 1000 nM

Sequence: ATGGCGAACTCCCTGAATGCTCTTGTC [14125-144_37]
- Kd [2, 4]: > 1000 nM

Sequence: GCCTGCACGATGGCGAACTCCCTGAATGCTCTTGTCTTAAGTCCCC [14125-144_13]
- Kd [2, 3]: 14.3 nM

Sequence: TACGATTTTCAGTTGGATCCAGTAC [5406-56_50]
- Kd ([1]; P = NapdU, 25-mer core): 18.8 nM

Sequence: ACGATTTTCAGTTGGATCCAGTACCTGGCTGGAGAGAA [5406-56_9]
- Kd ([1]; P = NapdU, bead partitioning): > 1000 nM

Sequence: ACGGTACGATTTTCAGTTGGATCCAGTAC [5406-56_46]
- Kd [2, 3]: 8.14 nM

Sequence: GTACGATTTTCAGTTGGATCCAGTACCTGGCTGGAGAGAA [5406-56_8]
- Kd ([1]; P = NapdU, bead partitioning): 78.1 nM

Sequence: CCTCCATACGGTACGATTTTCAGTTGGATCCAGTACCTGGCT [5406-56_15]
- Kd ([1]; P = NapdU, bead partitioning): 4.64 nM

Sequence: AGACTGCGGTTACCTTGTAGGCGATTATGGGC [5334-8_29]
- Kd ([1]; P = 2NapdU, bead partitioning): 15.6 nM

Sequence: CGGTACGATTTTCAGTTGGATCCAGTAC [5406-56_47]
- Kd [2, 3]: 5.7 nM

Sequence: AGACTGCGGTTACCTTGTAGGCGATT [5334-8_33]
- Kd [2, 5]: > 1000 nM

Sequence: AGACTGCGGTTACCTTGTAGGCGATTATGGGCA [5334-8_28]
- Kd [2, 6]: 8.45 nM

Sequence: GCACTCCACATCCAAGACTGCGGTTACCTTGTAGGCGATTATGGGCAG [5334-8_4]
- Kd ([1]; P = 2NapdU, bead partitioning): 17.3 nM

Sequence: CTGCGGTTACCTTGTAGGCGATTATGGGCAG [5334-8_23]
- Kd ([1]; P = 2NapdU, bead partitioning): 4.04 nM

Sequence: TACGATTTTCAGTTGGATCCAGTACC [5406-56_44]
- Kd ([1]; P = NapdU, bead partitioning): 36.2 nM

Sequence: GATGGCGAACTCCCTGAATGCTCTTGTCTTAA [14125-144_20]
- Kd [2, 3]: 6.67 nM

Sequence: TACGGTACGATTTTCAGTTGGATCCAGTACCTG [5406-56_27]
- Kd [2, 3]: 5.56 nM

Sequence: ATGGCGAACTCCCTGAATGCTCTTGTCTT [14125-144_29]
- Kd [2, 3]: 11.6 nM

Sequence: CGGCACTCCACATCCAAGACTGCGGTTACCTTGTAGGCGATTAT [5334-8_14]
- Kd [2, 5]: > 1000 nM

Sequence: TGGCGAACTCCCTGAATGCTCTTGTCTTA [14125-144_26]
- Kd ([1]; P = NapdU, bead partitioning): 5.03 nM

Sequence: CGGTACGATTTTCAGTTGGATCCAGTACC [5406-56_41]
- Kd ([1]; P = NapdU, bead partitioning): 2.74 nM

Sequence: GGCGAACTCCCTGAATGCTCTTGTCTT [14125-144_31]
- Kd ([1]; P = NapdU, bead partitioning): > 1000 nM

Sequence: CATCCAAGACTGCGGTTACCTTGTAGGCGATTATGGGCAG [5334-8_8]
- Kd [2, 6]: 9.69 nM

Sequence: GTACGATTTTCAGTTGGATCCAGTACCTGG [5406-56_25]
- Kd [2, 7]: 21.9 nM

Sequence: GCCTGCACGATGGCGAACTCCCTGAATGCTCTTG [14125-144_19]
- Kd [2, 4]: > 1000 nM

Sequence: GCGAACTCCCTGAATGCTCTTGTCTTAAGTCCCCAACA [14125-144_9]
- Kd ([1]; P = NapdU, bead partitioning): > 1000 nM

Sequence: CGGCACTCCACATCCAAGACTGCGGTTACCTTGTAGGCGATTATGG [5334-8_13]
- Kd ([1]; P = 2NapdU, bead partitioning): > 1000 nM

Sequence: GCCTGCACGATGGCGAACTCCCTGAATGCTCTTGTCTT [14125-144_17]
- Kd ([1]; P = NapdU, bead partitioning): 15.4 nM

Sequence: GTACGATTTTCAGTTGGATCCAGTACC [5406-56_43]
- Kd [2, 3]: 11 nM

Sequence: GGTACGATTTTCAGTTGGATCCAGTACCTGG [5406-56_24]
- Kd [2, 7]: 5.1 nM

Sequence: CCTCCATACGGTACGATTTTCAGTTGGATCCAGTACCTGG [5406-56_16]
- Kd ([1]; P = NapdU, bead partitioning): 2.58 nM

Sequence: CTGCACGATGGCGAACTCCCTGAATGCTCTTGTCTTAAGTCCCCAACA [14125-144_4]
- Kd [2, 3]: 10.5 nM

Sequence: ACGGTACGATTTTCAGTTGGATCCAGTACCTGG [5406-56_22]
- Kd ([2]; n (P) = NapdU, Zorbax bead partitioning, SB18, 5 mM MgCl2, 37 C, printed sequence identical to _21 to _25, length unclear): 4.93 nM

Sequence: ATGGCGAACTCCCTGAATGCTCTTGTCTTA [14125-144_25]
- Kd [2, 3]: 7.55 nM

Sequence: GTACGATTTTCAGTTGGATCCAGTAC [5406-56_49]
- Kd ([1]; P = NapdU, bead partitioning): 17.6 nM

Sequence: GATTTTCAGTTGGATCCAGTACCTGGCTGGAGAGAA [5406-56_10]
- Kd ([1]; P = NapdU, bead partitioning): > 1000 nM

Sequence: AGACTGCGGTTACCTTGTAGGCGATTAT [5334-8_32]
- Kd [2, 5]: > 1000 nM

Sequence: GAACTCCCTGAATGCTCTTGTCTTAAGTCCCCAACA [14125-144_10]
- Kd ([1]; P = NapdU, bead partitioning): > 1000 nM

Sequence: GATGGCGAACTCCCTGAATGCTCTTGTCTTAAGTCCCCAACA [14125-144_7]
- Kd [2, 3]: 6.96 nM

Sequence: CCTCCATACGGTACGATTTTCAGTTGGATCCAGTACCTGGCTGGAG [5406-56_13]
- Kd ([1]; P = NapdU, bead partitioning): 2.61 nM

Sequence: TCCATACGGTACGATTTTCAGTTGGATCCAGTACCTGGCTGGAGAGAA [5406-56_4]
- Kd ([1]; P = NapdU, bead partitioning): 3.11 nM

Sequence: CCTCCATACGGTACGATTTTCAGTTGGATCCAGTACCTGGCTGGAGAG [5406-56_12]
- Kd ([1]; P = NapdU, bead partitioning): 2.88 nM

Sequence: TACGATTTTCAGTTGGATCCAGTACCTG [5406-56_32]
- Kd ([1]; P = NapdU, bead partitioning): 75.4 nM

Sequence: GGCGAACTCCCTGAATGCTCTTGTCTTAA [14125-144_23]
- Kd ([1]; P = NapdU, bead partitioning): > 1000 nM

Sequence: TCCACATCCAAGACTGCGGTTACCTTGTAGGCGATTATGGGCAG [5334-8_6]
- Kd ([1]; P = 2NapdU, bead partitioning): 7.89 nM

Sequence: CGGTTACCTTGTAGGCGATTATGGGCAG [5334-8_26]
- Kd ([1]; P = 2NapdU, bead partitioning): > 1000 nM

Sequence: TACGGTACGATTTTCAGTTGGATCCAGTACCTGGCTGGAGAGAA [5406-56_6]
- Kd ([1]; P = NapdU, bead partitioning): 9.05 nM

Sequence: GCCTGCACGATGGCGAACTCCCTGAATGCTCTTGTCTTAAGT [14125-144_15]
- Kd ([1]; P = NapdU, bead partitioning): 14.6 nM

Sequence: TGGCGAACTCCCTGAATGCTCTTGTCTTAAGTCCCCAACA [14125-144_8]
- Kd ([1]; P = NapdU, bead partitioning): 6.82 nM

Sequence: CCTCCATACGGTACGATTTTCAGTTGGATCCAGTAC [5406-56_18]
- Kd ([1]; P = NapdU, bead partitioning): 42.2 nM

Sequence: GCGGTTACCTTGTAGGCGATTATGGGCAG [5334-8_25]
- Kd ([1]; P = 2NapdU, bead partitioning): 5.83 nM

Sequence: TGGCGAACTCCCTGAATGCTCTTGTCT [14125-144_34]
- Kd ([1]; P = NapdU, bead partitioning): > 1000 nM

Sequence: TACGATTTTCAGTTGGATCCAGTACCT [5406-56_38]
- Kd ([1]; P = NapdU, bead partitioning): > 1000 nM

Sequence: TGGCGAACTCCCTGAATGCTCTTGTC [14125-144_38]
- Kd ([1]; P = NapdU, bead partitioning): > 1000 nM

Sequence: CGGCACTCCACATCCAAGACTGCGGTTACCTTGTAGGCGATT [5334-8_15]
- Kd ([1]; P = 2NapdU, bead partitioning): > 1000 nM

Sequence: TTTTCAGTTGGATCCAGTACCTGGCTGGAGAGAA [5406-56_11]
- Kd ([1]; P = NapdU, bead partitioning): > 1000 nM

Sequence: CCTCCATACGGTACGATTTTCAGTTGGATCCAGT [5406-56_19]
- Kd ([1]; P = NapdU, bead partitioning): > 1000 nM

Sequence: AGACTGCGGTTACCTTGTAGGCGATTATGGGCAG [5334-8_11]
- Kd ([1]; P = 2NapdU, bead partitioning): 4.69 nM

Sequence: GGTTACCTTGTAGGCGATTATGGGCAG [5334-8_27]
- Kd ([1]; P = 2NapdU, bead partitioning): 279 nM

Sequence: AGACTGCGGTTACCTTGTAGGCGATTATGG [5334-8_31]
- Kd ([1]; P = 2NapdU, bead partitioning): > 1000 nM

Sequence: CGGTACGATTTTCAGTTGGATCCAGTACCTGGCTGGAGAGAA [5406-56_7]
- Kd ([1]; P = NapdU, bead partitioning): 13 nM

Sequence: AGACTGCGGTTACCTTGTAGGCGATTATGGG [5334-8_30]
- Kd ([1]; P = 2NapdU, bead partitioning): 80.9 nM

Sequence: ACGATGGCGAACTCCCTGAATGCTCTTGTCTTAAGTCCCCAACA [14125-144_6]
- Kd ([1]; P = NapdU, bead partitioning): 7.49 nM

Sequence: CGGCACTCCACATCCAAGACTGCGGTTACCTTGTAGGCGATTATGGGC [5334-8_12]
- Kd ([1]; P = 2NapdU, bead partitioning): 25.8 nM

Sequence: GTACGATTTTCAGTTGGATCCAGTACCTG [5406-56_31]
- Kd ([1]; P = NapdU, bead partitioning): 14.8 nM

Sequence: CCTCCATACGGTACGATTTTCAGTTGGATCCAGTACCTGGCTGG [5406-56_14]
- Kd ([1]; P = NapdU, bead partitioning): 3 nM

Sequence: GTACGATTTTCAGTTGGATCCAGTACCT [5406-56_37]
- Kd ([1]; P = NapdU, bead partitioning): 9.44 nM

Sequence: TACGGTACGATTTTCAGTTGGATCCAGTACCTGG [5406-56_21]
- Kd ([1]; P = NapdU, table prints a shorter sequence than the listing for SEQ 18): 8.13 nM

Sequence: TACGATTTTCAGTTGGATCCAGTACCTGG [5406-56_26]
- Kd ([1]; P = NapdU, bead partitioning): 64.3 nM

Sequence: GGCGAACTCCCTGAATGCTCTTGTCTTA [14125-144_27]
- Kd ([1]; P = NapdU, bead partitioning): > 1000 nM

Reference: patent US20210317456
